Data reported in patent US20250215491, “SEQUENCING WITH SINGLE-STRANDED BINDING PROTEINS” (ILLUMINA, INC., published 2025).
Positions count from the first letter of the chain named.

What was measured:
[1] = target: T1, Tth SSB F255P (Rev 101 F225P) (Thermus thermophilus HB8, UniProt Q5SLP9 SEQ:21-283); test: EMSA; Kd value only in FIG. 12; 50 mM Tris pH 7.5, 50 mM NaCl, 0.1 mM DTT, 60 C 10 min; 0.25 nM oligo; protein 0.1-4 uM; settings: chain copies: 2 (inferred); label: 5'-FAM
T1 chain: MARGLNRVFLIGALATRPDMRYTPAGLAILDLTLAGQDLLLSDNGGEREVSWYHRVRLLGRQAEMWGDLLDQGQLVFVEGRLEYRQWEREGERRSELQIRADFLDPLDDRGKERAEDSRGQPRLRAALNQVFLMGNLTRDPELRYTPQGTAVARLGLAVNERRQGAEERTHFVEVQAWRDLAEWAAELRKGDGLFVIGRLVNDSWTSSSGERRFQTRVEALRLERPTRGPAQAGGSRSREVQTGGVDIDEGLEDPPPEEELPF
Method: (§1) An electrophoretic mobility shift assay was used to determine the binding affinity (Kd) for the Tth F255P SSB and Tth SSB. An oligonucleotide of 35 bases labelled at the 5′ end with fluorescein (FAM) dye was used as the substrate. The sequence of the oligonucleotide is 5′ FAM GTGTAGATCTCGGTGGTCGCCGTATCATTAAAAAA (SEQ ID NO: 14). A titration of Tth F255P SSB or Tth SSB was used ranging from 0.1 to 4 μM. The reaction buffer was 50 mM Tris pH 7.5, 50 mM NaCl, and 0.1 mM DTT with each reaction utilizing […] of labelled oligonucleotide. The reactions were incubated at 60° C. for 10 minutes. The reactions were resolved on 10% acrylamide native TBE gel and imaged with Typhoon Scanner. The fraction of bound versus unbound for each concentration tested was determined and fitted for Kd analysis.

[2] = target: T2, Tth SSB (Rev 101) (Thermus thermophilus HB8, UniProt Q5SLP9 SEQ:21-283); test: as above; settings: chain copies: 2 (inferred); label: 5'-FAM
T2 sequence: T1 chain with P255F
Method: as §1

Does GTGTAGATCTCGGTGGTCGCCGTATCATTAAAAAA (ssDNA) [5'-FAM 35-mer oligonucleotide] bind [1]?
Result: binds

Does GTGTAGATCTCGGTGGTCGCCGTATCATTAAAAAA (ssDNA) [5'-FAM 35-mer oligonucleotide] bind [2]?
Result: binds
